From the supplement of paper PMC11780869

Test system: Bacillus subtilis
Assay: cleaved RNA product abundance (RNA/gDNA barcode ratio) relative to median wild-type variant (ratio to wild type); higher = more accumulation of the downstream cleavage product
Outline: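 Reporter mRNAs based on truncated aprE or tetM carried barcoded, mutagenized RNase Y cleavage-site windows built from oligos with a 9% error rate and were integrated into the B. subtilis chromosome. Cultures grew in LB at 37°C from OD600 0.0003 to 0.3. Cleaved RNA was gel-selected, reverse transcribed and barcode-sequenced together with genomic DNA barcodes, and UMIs were collapsed. Cleaved product abundance is the per-construct ratio of RNA to gDNA barcodes, scaled to the median of constructs carrying the unmutated site.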

[1] = experiment (reporter, strain, medium): exp 4a: truncated aprE reporter, strain BJT201 with 2% xylose (RNase J1 expressed), cleavage site: cggR-gapA (positions -7 to +36 mutated)
[2] = experiment (reporter, strain, medium): exp 8a: truncated aprE reporter, strain BJT201 with 2% xylose (RNase J1 expressed), cleavage site: glnRA (positions -5 to +31 mutated)
[3] = experiment (reporter, strain, medium): exp 2b: truncated aprE reporter, strain BJT200, cleavage site: cggR-gapA (positions -7 to +36 mutated)
[4] = experiment (reporter, strain, medium): exp 6: tetM reporter, strain 168, cleavage site: cggR-gapA (positions -7 to +36 mutated)

Sequence | cleaved RNA product abundance [1] | cleaved RNA product abundance [3] | other results
ACAGACGAAGGAGCCGCAAAGAAGTTATTAACGGATGAATAATCCCTGAATATAAATATCTCTCACTTATTTAAA | 0.107 |  | 
ACAGACGAAGGAGCCGCAAATAAGTTATTAAGAGATGAATAATCCCTCAATATAAATATTTCTCACTTATTTAAA | 0.124 |  | 
CGACATGTCCCGCTTCTTTCATTAATCCGTTAGCAACTGTTTTGCTATATACATTAACCGTTTAAGAGGAGGAAT |  |  | cleaved RNA product abundance [2]: 0.934
CGACATGTCCCGCTTCTTTCATTAATCCGTTAGCATCTGTTTTGCTATATACATTTACGTTTTAAGAGGAGGAAT |  |  | cleaved RNA product abundance [2]: 0.589
ACAGACGAAGGAGCCGCAAAGAAGTAATTAACGGATGAATAATCCCTGAATATAAATATCTCTCACTTATTTAAA | 0.16 |  | 
ACAGACGAAGGAGCCGCAAAGAAGTTATTAAGGGATAAATAATCCCTCACTATAAATATCTCTCACTTATTTAAA | 0.193 | 0.247 | 
ACAGACGAAGGAGCCGCAAAGAAGTTATTAAGGGATGAAAAATCCCTCAATATAGATATCTCTCACTTATTTAAA |  | 0.277 | 
CGACATGTCCCGCTTCTTTCATTAATCCGTTAGCAACTGTTTTGCTATATACATGTACCTTTTAAGAGGAGGAAT |  |  | cleaved RNA product abundance [2]: 0.738
ACAGACGAAGGAGCCGCAGAGAAGTTATTAAGGAATGAATAATCCCTCAATATAAATATCTCTCACTTATTTAAA | 0.143 |  | 
ACAGACGAAGGAGCCGCAAAGAAGTTATTAAGGGATGAATAATCCCTCAATATAAATGTTTCTCACTTATTTAAA | 0.369 |  | 
ACAGACGAAGGAGCCGCAAAGAAGATATTAAGGGATGAATAATCCCTGAATATAAATATCTCTCACTTATTTAAA | 0.583 |  | 
ACAGACGAAGGAGCCGCAAAGAAGCTATTAAGGGACGAATAATCCCTCAATATAAATATCTCTCACTTATTTAAA | 0.436 |  | 
ACAGACGAAGGAGCCGCAAATAAGTTATTAAGGGATGAATAATCTCTCAATATAAATATCTCTCACTTATTTAAA | 0.758 | 0.613 | 
ACAGACGAAGGAGCCGCAAAAAAGATATTAAGGGATGAATAATCCCTCAATATAAATATCTCTCACTTATTTAAA | 0.913 |  | cleaved RNA product abundance [4]: 0.421
ACAGACGAAGGAGCCGCACAGAAGATATTAAGGGATGAATAATCCCTCAATATAAATATCTCTCACTTATTTAAA | 0.364 |  | 
ACAGACGAAGGAGCCGCAAAGAAGTTATTAAGGGTTGAATAATACCTCAATATAAATATCTCTCACTTATTTAAA | 0.234 | 0.146 | 
ACAGACGAAGGAGCCGCAAAGAAGTTATTAAGGGATGAATAATCCCTCAATAGAAATATCTCTCACTTATTTAAA | 0.111 | 0.164 | cleaved RNA product abundance [4]: 0.165
ACAGACGAAGGAGCCGCAAAGAAGTTAATAAGGTATGAATAATCCCTCAATATAAATATCTCTCACTTATTTAAA | 0.15 | 0.0951 | 
ACAGACGAAGGAGCCGCAAAAAAGTTATTAAGGGATCAATAATCCCTCAATATAAATATCTCTCACTTATTTAAA | 0.712 | 0.923 | 
ACAGACGAAGGAGCCGCAAAGAAGTTATTAAGGGATGAATAATCCCTCAACATAAAAATCTCTCACTTATTTAAA | 0.234 | 0.242 | 

Sequence | cleaved RNA product abundance [1] | cleaved RNA product abundance [3] | other results
ACAGACGAAGGAGCCGCAAAGAAGTTATTAAGGTATGAATAATCCTTCAATATAAATATCTCTCACTTATTTAAA | 0.126 | 0.145 | 
CGACATGTCCCGCTTCTTTCATTAATCCGTTCGCAACAGTTTTGCTATATACATTTACCTTTTAAGAGGAGGAAT |  |  | cleaved RNA product abundance [2]: 0.419
CGACATGTCCCGCTTCTTTCATTACTCCGTTAGCAACTGTTTTGCTATATACATTTACCGTTTAAGAGGAGGAAT |  |  | cleaved RNA product abundance [2]: 1.01
CGACATGTCCCGCTTCTTTCATTAATCCGTTAGCAACTGTTTGACTATATACATTTACCTTTTAAGAGGAGGAAT |  |  | cleaved RNA product abundance [2]: 0.605
ACAGACGAAGGAGCCGCAAAGAAGTTACTAAGGGATGAATAATCTCTCAATATAAATATCTCTCACTTATTTAAA | 0.22 | 0.149 | 
CGACATGTCCCGCTTCTTTCATTAATCCGTTAGCAACAGTTTTTCTATATACATTTACCTTTTAAGAGGAGGAAT |  |  | cleaved RNA product abundance [2]: 0.345
ACAGACGAAGGAGCCGCAACGAAGTTATTAACGGATGAATAATCCCTCAATATAAATATCTCTCACTTATTTAAA | 0.155 |  | 
CGACATGTCCCGCTTCTTTCATTAACCCGTTAGCAACTGTTTTGCTATATACATTTACCATTTAAGAGGAGGAAT |  |  | cleaved RNA product abundance [2]: 1.41
ACAGACGAAGGAGCCGCAAAGAAGTTATTAATGGATGAATAATCCCGCAATATAAATATCTCTCACTTATTTAAA | 0.144 |  | 
ACAGACGAAGGAGCCGCTAAGAAGTTATTAAGGGATGAATATTCCCTCAATATAAATATCTCTCACTTATTTAAA | 0.667 |  | 
ACAGACGAAGGAGCCGCAAAGAAGTTTATAAGGGATGAATAATCCCTCAATATAAATATCTCTCACTTATTTAAA | 0.438 |  | 
CGACATGTCCCGCTTCTTTCATTAATCCGTTAACAACTGTTTTGCTATATACATTTACCATTTAAGAGGAGGAAT |  |  | cleaved RNA product abundance [2]: 0.176
ACAGACGAAGGAGCCGCAAAGATGTAATTAAGGGATGAATAATCCCTCAATATAAATATCTCTCACTTATTTAAA | 0.427 |  | 
ACAGACGAAGGAGCCGCAAAGAAGTTATTAAGGGATGAATAACCCCTCAATATACATATCTCTCACTTATTTAAA | 0.37 |  | 
ACAGACGAAGGAGCCGCAAAGAAGTTTTTAAGGCATGAATAATCCCTCAATATAAATATCTCTCACTTATTTAAA | 0.119 |  | 
ACAGACGAAGGAGCCGCAAAGAAGTTATTATGGGATGAATAATCCGTCAATATAAATATCTCTCACTTATTTAAA | 0.279 |  | 
ACAGACGAAGGAGCCGCAAAGAAATTATTAAGGGATGAATAATCCCGCAATATAAATATCTCTCACTTATTTAAA | 0.214 |  | 
ACAGACGAAGGAGCCGCAAAGAAGTTATTAAGGGATGAATAATACATCAATATAAATATCTCTCACTTATTTAAA | 0.0848 |  | 
ACAGACGAAGGAGCCGCAAAGAAGTTATTAAGGGAAGAATAATCCCTCGATATAAATATCTCTCACTTATTTAAA | 0.521 |  | 
ACAGACGAAGGAGCCGCAAAGAAGCTATAAAGGGATGAATAATCCCTCAATATAAATATCTCTCACTTATTTAAA | 0.357 | 0.272 | 

Sequence | cleaved RNA product abundance [1] | cleaved RNA product abundance [3] | other results
ACAGACGAAGGAGCCGCAAAGAAGTTATTATGGTATGAATAATCCCTCAATATAAATATCTCTCACTTATTTAAA | 0.14 | 0.0925 | 
CGACATGTCCCGCTTCTTTCATTAATCCATAAGCAACTGTTTTGCTATATACATTTACCTTTTAAGAGGAGGAAT |  |  | cleaved RNA product abundance [2]: 0.462
ACAGACGAAGGAGCCGCAAAGAAGTTATTAAGGGATAAATAATCCCTCCATATAAATATCTCTCACTTATTTAAA | 0.234 | 0.26 | 
ACAGACGAAGGAGCCGCAAAGAAGTTATTAAGGGATGAATTATCCCTCACTATAAATATCTCTCACTTATTTAAA | 0.208 |  | 
CGACATGTCCCGCTTCTTTCATTAATCCGTTAGCAACTGTTTTGCAATATACATTTATCTTTTAAGAGGAGGAAT |  |  | cleaved RNA product abundance [2]: 0.505
CGACATGTCCCGCTTCTTTCATTAATCCGTTAGGAACTGTTTTGCTATATACATTTACCTTTTAAGAGGAGGAAT |  |  | cleaved RNA product abundance [2]: 0.331
CGACATGTCCCGCTTCTTTCATTAATCCGTTAGCAACTATTTTGCAATATACATTTACCTTTTAAGAGGAGGAAT |  |  | cleaved RNA product abundance [2]: 0.531
ACAGACGAAGGAGCCGCAAAGAAGTTACTAAGGGACGAATAATCCCTCAATATAAATATCTCTCACTTATTTAAA |  | 0.131 | 
ACAGACGAAGGAGCCGCAAATAAATTATTAAGGGATGAATAATACCTCAATATAAATATCTCTCACTTATTTAAA | 0.0858 |  | 
ACAGACGAAGGAGCCGCAAAAAAGTTATTAAGGGATGAATAATCCCTCGATATAAATATCTCTCACTTATTTAAA | 0.555 | 0.396 | 
ACAGACGAAGGAGCCGCAAAGAAGTTATTATGGCATGAATAATCCCTCAATATAAATATCTCTCACTTATTTAAA | 0.184 | 0.0973 | 
CGACATGTCCCGCTTCTTTCATTAATCCGTTAGAAACTGTTTTGCTATATACAGTTACCTTTTAAGAGGAGGAAT |  |  | cleaved RNA product abundance [2]: 0.361
ACAGACGAAGGAGCCGCAAAGAAGTTATTAAGGGATGAATAATCCTTCAATATAAGTATCTCTCACTTATTTAAA | 0.213 |  | 
ACAGACGAAGGAGCCGCAAAGAAGTTATTATGGGATAAATAATCCCTCAATATAAATATCTCTCACTTATTTAAA | 0.362 | 0.31 | 
ACAGACGAAGGAGCCGCAAAGACGTTATTATGGGATGAATAATCCCTCAATATAAATATCTCTCACTTATTTAAA | 0.284 |  | 
CGACATGTCCCGCTTCTTTCATTAGTCCGTTAGCAACTGTTTTGATATATACATTTACCTTTTAAGAGGAGGAAT |  |  | cleaved RNA product abundance [2]: 0.542
CGACATGTCCCGCTTCTTTCATTAATCCGTTAGCAACTGTATTGCTATATACATATACCTTTTAAGAGGAGGAAT |  |  | cleaved RNA product abundance [2]: 0.755
ACAGACGAAGGAGCCGCAAAGAAGTTATTAAGGGATCAATAATCCCTCAATTTAAATATCTCTCACTTATTTAAA |  | 0.197 | 
ACAGACGAAGGAGCCGCACAGAAGTTATTAAGAGATGAATAATCCCTCAATATAAATATCTCTCACTTATTTAAA | 0.215 | 0.134 | 
ACAGACGAAGGAGCCGCAAAGAAGTAATTAAGGGATGAATAATCCCTCAATATATATATCTCTCACTTATTTAAA | 0.278 | 0.2 | 
